Measurements taken from paper PMC5651216, “Structural Basis for a Safety-Belt Mechanism That Anchors Condensin to Chromosomes”.

T1: Sc Ycg1 crystallization construct;Sc Brn1 short kleisin loop (Saccharomyces cerevisiae;Saccharomyces …, UniProt Q06680;P38170 6-932;384-529, del499-555|del418-444)
T1 sequence 1: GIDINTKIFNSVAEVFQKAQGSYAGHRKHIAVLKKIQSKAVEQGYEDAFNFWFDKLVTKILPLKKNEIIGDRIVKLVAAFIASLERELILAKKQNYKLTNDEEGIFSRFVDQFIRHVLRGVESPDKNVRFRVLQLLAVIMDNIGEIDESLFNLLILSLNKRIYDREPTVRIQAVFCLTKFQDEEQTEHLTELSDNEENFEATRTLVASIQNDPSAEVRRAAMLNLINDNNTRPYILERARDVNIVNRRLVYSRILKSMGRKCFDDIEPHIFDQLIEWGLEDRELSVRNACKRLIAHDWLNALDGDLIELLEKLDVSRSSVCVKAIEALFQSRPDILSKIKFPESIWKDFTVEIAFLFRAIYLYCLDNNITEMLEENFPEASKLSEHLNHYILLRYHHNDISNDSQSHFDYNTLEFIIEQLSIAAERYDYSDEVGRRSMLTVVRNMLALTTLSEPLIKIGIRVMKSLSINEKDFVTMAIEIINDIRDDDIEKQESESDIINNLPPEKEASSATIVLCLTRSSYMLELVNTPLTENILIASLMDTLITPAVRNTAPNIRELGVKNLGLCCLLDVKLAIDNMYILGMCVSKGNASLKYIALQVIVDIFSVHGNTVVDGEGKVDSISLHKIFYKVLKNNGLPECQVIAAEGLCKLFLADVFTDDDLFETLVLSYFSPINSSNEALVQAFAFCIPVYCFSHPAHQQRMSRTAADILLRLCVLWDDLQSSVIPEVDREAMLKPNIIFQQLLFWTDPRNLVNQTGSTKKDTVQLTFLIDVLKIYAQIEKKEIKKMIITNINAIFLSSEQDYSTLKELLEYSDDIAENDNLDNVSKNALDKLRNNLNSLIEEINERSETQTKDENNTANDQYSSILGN
T1 sequence 2: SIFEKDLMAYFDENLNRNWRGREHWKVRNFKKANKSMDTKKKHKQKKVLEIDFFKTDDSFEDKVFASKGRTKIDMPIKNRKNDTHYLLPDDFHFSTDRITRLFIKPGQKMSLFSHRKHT

T2: Sc Ycg1 crystallization construct;Sc Brn1 384-529 (Saccharomyces cerevisiae;Saccharomyces …, UniProt Q06680;P38170 6-932;384-529, del499-555|)
T2 sequence 1: T1 sequence 1
T2 sequence 2: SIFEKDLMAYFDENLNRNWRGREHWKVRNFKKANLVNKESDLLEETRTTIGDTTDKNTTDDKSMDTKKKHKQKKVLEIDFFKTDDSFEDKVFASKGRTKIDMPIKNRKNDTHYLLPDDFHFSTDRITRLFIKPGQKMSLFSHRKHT

B1: 18-bp palindromic dsDNA (dsDNA)
DNA 1: GATGTGTAGCTACACATC
DNA 2: GATGTGTAGCTACACATC
B2: 35-bp dsDNA (dsDNA)
DNA 1: CCTATAGTGAGTCGTTCGATATTACAATTCACTGG
DNA 2: CCAGTGAATTGTAATATCGAACGACTCACTATAGG

Legend:
[1] = system: Ct Ycg1 24-1006;Ct Brn1 deltaN 539-634 (Chaetomium thermophilum;Chaetomium thermophilum); experiment: EMSA; conditions: protein conc. at which free DNA is depleted; EMSA: 10 mM HEPES-KOH pH 7.5, 125 mM NaCl, 5 mM MgCl2, 1 mM DTT, 30 min, gels at 4 C, 0.2 uM 35-bp or 10 nM 2.1-kb DNA; ITC: 25 mM Tris-HCl pH 7.5, 200 mM …
[2] = system: Ct Ycg1 24-1006;Ct Brn1 515-634 (Chaetomium thermophilum;Chaetomium thermophilum); experiment: EMSA; conditions: protein conc. at which free DNA is depleted; EMSA: 10 mM HEPES-KOH pH 7.5, 125 mM NaCl, 5 mM MgCl2, 1 mM DTT, 30 min, gels at 4 C, 0.2 uM 35-bp or 10 nM 2.1-kb DNA; ITC: 25 mM Tris-HCl pH 7.5, 200 mM …
[3] = system: Ct Ycg1 24-1006;Ct Brn1 PhiD 515-634 (Chaetomium thermophilum;Chaetomium thermophilum); experiment: EMSA; conditions: protein conc. at which free DNA is depleted; EMSA: 10 mM HEPES-KOH pH 7.5, 125 mM NaCl, 5 mM MgCl2, 1 mM DTT, 30 min, gels at 4 C, 0.2 uM 35-bp or 10 nM 2.1-kb DNA; ITC: 25 mM Tris-HCl pH 7.5, 200 mM …
[4] = system: Ct Ycg1 24-1006;Ct Brn1 515-634 (Chaetomium thermophilum;Chaetomium thermophilum); experiment: ITC; conditions: 2 mM Mg2+, 25 C; EMSA: 10 mM HEPES-KOH pH 7.5, 125 mM NaCl, 5 mM MgCl2, 1 mM DTT, 30 min, gels at 4 C, 0.2 uM 35-bp or 10 nM 2.1-kb DNA; ITC: 25 mM Tris-HCl pH 7.5, 200 mM …
[5] = molecular target: T1, Sc Ycg1 crystallization construct;Sc …; experiment: X-ray crystallography; 5 mM MgSO4; EMSA: 10 mM HEPES-KOH pH 7.5, 125 mM NaCl, 5 mM MgCl2, 1 mM DTT, 30 min, gels at 4 C, 0.2 uM 35-bp or 10 nM 2.1-kb DNA; ITC: 25 mM Tris-HCl pH 7.5, 200 mM NaCl, 2 mM MgCl2, 1 mM BME, 25 C; conditions: protein: recombinant;recombinant; tags: untagged;N-terminal His6-HRV3C; copies: 1;1; blunt, self-complementary
[6] = molecular target: T2, Sc Ycg1 crystallization construct;Sc …; experiment: X-ray crystallography; crystal form I, 2.98 A, 5 mM MgSO4; EMSA: 10 mM HEPES-KOH pH 7.5, 125 mM NaCl, 5 mM MgCl2, 1 mM DTT, 30 min, gels at 4 C, 0.2 uM 35-bp or 10 nM 2.1-kb DNA; ITC: 25 mM Tris-HCl pH 7.5, 200 mM NaCl, 2 mM MgCl2, 1 mM BME, 25 C; conditions: protein: recombinant;recombinant; tags: untagged;N-terminal His6-HRV3C; copies: 1;1; blunt, self-complementary
[7] = molecular target: Sc Smc2;Sc Smc4;Sc Ycs4;Sc Brn1 (Saccharomyces cerevisiae;Saccharomyces …, UniProt P38989;Q12267;Q06156;P38170 1-1170;1-1418;1-1176;1-754, |||); experiment: EMSA; lacks Ycg1; EMSA: 10 mM HEPES-KOH pH 7.5, 125 mM NaCl, 5 mM MgCl2, 1 mM DTT, 30 min, gels at 4 C, 0.2 uM 35-bp or 10 nM 2.1-kb DNA; ITC: 25 mM Tris-HCl pH 7.5, 200 mM NaCl, 2 mM MgCl2, 1 mM BME, 25 C; conditions: protein: recombinant;recombinant;recombinant;recombinant; tags: ;C-terminal StrepII x3;;C-terminal His12-HA3; copies: 1;1;1;1; label: 5' 6-FAM on strand 1; blunt
Sc Smc2;Sc Smc4;Sc Ycs4;Sc Brn1, sequence (P38989 whole entry, chain 1 of 4): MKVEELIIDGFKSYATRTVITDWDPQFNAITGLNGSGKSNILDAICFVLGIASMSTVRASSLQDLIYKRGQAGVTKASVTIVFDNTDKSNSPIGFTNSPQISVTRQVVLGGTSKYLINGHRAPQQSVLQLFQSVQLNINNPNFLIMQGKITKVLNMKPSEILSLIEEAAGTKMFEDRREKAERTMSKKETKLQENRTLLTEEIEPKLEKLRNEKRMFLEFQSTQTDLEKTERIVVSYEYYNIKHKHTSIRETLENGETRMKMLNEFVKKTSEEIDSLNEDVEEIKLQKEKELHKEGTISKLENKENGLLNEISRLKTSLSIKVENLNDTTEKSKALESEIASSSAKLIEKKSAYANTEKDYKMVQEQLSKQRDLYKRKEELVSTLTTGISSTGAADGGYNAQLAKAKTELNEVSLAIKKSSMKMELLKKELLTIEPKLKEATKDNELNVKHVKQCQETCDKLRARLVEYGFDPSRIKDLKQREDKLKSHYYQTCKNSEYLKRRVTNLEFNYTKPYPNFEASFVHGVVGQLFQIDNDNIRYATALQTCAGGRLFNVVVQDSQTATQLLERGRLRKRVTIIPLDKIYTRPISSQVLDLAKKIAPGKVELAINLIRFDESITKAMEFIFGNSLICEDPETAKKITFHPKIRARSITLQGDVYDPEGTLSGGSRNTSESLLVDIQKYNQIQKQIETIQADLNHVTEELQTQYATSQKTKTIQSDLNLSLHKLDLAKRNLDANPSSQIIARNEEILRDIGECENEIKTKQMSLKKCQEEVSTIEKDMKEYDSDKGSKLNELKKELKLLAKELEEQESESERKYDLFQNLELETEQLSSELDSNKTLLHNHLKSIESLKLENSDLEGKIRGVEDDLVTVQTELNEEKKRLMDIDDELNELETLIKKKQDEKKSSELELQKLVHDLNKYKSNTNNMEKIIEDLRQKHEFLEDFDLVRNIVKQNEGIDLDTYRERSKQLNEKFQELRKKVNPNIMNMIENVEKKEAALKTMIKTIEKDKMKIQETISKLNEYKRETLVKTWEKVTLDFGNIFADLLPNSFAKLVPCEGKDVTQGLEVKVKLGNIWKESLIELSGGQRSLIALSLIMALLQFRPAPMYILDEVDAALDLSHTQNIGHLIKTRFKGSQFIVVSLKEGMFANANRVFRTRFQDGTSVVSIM
Sc Smc2;Sc Smc4;Sc Ycs4;Sc Brn1, sequence (Q12267 whole entry, chain 2 of 4): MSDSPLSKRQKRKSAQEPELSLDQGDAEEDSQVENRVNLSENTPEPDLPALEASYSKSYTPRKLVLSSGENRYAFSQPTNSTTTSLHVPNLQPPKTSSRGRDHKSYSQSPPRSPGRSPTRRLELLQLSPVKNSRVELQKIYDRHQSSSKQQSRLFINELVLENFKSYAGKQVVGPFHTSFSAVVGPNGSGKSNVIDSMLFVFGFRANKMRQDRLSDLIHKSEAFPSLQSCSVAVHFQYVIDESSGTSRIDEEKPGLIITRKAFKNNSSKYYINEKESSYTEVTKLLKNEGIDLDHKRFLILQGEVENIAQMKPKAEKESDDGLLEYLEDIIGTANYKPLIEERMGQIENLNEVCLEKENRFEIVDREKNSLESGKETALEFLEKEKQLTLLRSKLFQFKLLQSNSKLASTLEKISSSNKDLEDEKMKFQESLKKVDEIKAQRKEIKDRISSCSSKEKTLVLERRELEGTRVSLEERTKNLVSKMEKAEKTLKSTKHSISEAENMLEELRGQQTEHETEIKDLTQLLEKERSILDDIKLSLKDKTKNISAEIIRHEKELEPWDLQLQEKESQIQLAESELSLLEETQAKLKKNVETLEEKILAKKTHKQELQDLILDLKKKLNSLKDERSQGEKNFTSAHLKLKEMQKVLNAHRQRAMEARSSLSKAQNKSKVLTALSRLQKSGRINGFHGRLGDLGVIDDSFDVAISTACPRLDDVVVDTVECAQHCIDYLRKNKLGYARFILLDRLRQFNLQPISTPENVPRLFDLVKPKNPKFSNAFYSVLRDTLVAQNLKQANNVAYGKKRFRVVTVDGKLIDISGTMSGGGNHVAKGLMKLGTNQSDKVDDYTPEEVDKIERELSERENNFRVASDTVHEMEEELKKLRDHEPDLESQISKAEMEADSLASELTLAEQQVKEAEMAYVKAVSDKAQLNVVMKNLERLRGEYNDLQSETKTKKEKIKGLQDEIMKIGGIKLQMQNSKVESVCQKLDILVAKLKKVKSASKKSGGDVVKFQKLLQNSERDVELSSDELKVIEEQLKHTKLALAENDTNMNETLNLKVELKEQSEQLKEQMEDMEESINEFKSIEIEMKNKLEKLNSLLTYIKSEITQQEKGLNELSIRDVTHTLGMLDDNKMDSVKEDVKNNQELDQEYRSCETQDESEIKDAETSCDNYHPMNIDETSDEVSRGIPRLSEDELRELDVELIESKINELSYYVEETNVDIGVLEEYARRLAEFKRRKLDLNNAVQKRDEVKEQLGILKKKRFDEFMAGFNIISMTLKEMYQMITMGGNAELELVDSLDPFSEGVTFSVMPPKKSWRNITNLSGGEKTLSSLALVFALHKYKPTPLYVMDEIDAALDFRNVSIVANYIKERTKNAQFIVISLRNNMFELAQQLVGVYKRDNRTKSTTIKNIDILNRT
Sc Smc2;Sc Smc4;Sc Ycs4;Sc Brn1, sequence (Q06156 whole entry, chain 3 of 4): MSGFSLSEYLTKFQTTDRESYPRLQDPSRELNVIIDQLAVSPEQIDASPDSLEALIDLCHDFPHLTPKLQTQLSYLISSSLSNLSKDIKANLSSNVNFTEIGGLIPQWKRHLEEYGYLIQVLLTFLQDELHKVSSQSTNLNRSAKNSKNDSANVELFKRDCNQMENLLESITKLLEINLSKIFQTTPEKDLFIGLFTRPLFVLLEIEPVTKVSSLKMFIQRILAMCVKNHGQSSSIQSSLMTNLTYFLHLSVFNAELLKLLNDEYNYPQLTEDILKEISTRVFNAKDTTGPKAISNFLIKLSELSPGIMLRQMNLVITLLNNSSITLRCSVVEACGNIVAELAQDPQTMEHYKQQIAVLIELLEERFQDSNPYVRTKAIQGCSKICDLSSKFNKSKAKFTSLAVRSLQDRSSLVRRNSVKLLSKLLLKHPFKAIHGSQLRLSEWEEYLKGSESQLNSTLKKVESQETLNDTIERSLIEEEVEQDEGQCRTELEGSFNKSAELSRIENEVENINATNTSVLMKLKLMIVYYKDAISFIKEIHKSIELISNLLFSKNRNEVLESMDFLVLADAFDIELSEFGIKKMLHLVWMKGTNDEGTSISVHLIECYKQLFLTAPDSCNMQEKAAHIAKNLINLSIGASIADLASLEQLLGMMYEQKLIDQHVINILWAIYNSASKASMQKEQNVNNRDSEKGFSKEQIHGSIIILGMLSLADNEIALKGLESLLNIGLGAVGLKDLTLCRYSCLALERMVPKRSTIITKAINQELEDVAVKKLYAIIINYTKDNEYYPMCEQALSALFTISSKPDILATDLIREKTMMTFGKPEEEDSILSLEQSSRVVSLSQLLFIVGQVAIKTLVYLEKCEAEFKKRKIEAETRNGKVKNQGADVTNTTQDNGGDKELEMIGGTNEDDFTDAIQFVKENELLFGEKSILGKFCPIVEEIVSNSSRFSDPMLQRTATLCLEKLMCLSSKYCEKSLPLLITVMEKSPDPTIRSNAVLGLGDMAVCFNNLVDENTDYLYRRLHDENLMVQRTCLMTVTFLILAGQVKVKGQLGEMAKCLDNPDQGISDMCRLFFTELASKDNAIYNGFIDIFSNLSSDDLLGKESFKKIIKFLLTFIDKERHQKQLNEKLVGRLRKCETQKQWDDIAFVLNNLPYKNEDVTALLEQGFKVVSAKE
Sc Smc2;Sc Smc4;Sc Ycs4;Sc Brn1, sequence (P38170 whole entry, chain 4 of 4): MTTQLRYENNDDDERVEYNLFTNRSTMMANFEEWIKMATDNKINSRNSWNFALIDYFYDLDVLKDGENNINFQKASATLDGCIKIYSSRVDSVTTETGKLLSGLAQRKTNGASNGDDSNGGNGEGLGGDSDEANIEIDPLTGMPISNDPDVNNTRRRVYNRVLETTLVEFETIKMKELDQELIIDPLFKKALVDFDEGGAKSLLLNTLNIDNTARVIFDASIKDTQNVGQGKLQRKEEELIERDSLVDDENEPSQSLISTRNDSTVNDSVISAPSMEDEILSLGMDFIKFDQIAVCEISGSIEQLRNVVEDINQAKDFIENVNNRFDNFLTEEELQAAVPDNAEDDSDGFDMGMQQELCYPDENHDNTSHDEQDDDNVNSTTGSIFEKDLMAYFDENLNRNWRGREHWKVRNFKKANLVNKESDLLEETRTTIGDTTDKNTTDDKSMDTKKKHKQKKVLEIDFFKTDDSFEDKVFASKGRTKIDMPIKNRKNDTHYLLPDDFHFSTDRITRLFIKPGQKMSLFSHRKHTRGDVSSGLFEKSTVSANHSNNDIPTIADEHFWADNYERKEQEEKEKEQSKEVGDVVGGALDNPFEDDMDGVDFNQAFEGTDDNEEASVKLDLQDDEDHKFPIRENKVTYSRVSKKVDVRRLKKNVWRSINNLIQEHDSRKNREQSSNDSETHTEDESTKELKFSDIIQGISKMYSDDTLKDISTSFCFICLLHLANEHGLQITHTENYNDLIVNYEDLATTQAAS

[8] = molecular target: Sc Smc2;Sc Smc4;Sc Ycs4;Sc Ycg1;Sc Brn1 BC1/2 (Saccharomyces cerevisiae;Saccharomyces …, UniProt P38989;Q12267;Q06156;Q06680;P38170 1-1170;1-1418;1-1176;1-1035;1-754, ||||K409D;R411D;K414D;K451D;K452D;K454D;K456D;K457D); experiment: EMSA; EMSA: 10 mM HEPES-KOH pH 7.5, 125 mM NaCl, 5 mM MgCl2, 1 mM DTT, 30 min, gels at 4 C, 0.2 uM 35-bp or 10 nM 2.1-kb DNA; ITC: 25 mM Tris-HCl pH 7.5, 200 mM NaCl, 2 mM MgCl2, 1 mM BME, 25 C; conditions: protein: recombinant;recombinant;recombinant;recombinant;recombinant; tags: ;C-terminal StrepII x3;;;C-terminal His12-HA3; copies: 1;1;1;1;1; label: 5' 6-FAM on strand 1; blunt

Molecule	binding signal [1] [nM]	binding signal [2] [nM]	binding signal [3] [nM]	further results
2.1-kb circular supercoiled plasmid	83	21	83	
CCTATAGTGAGTCACAATTCACTGG (double strand) [25-bp dsDNA]				Kd [4]: 1.7 µM
CCTATAGTGAGTCGTTCGATATTACAATTCACTGG (double strand) [35-bp dsDNA]	800	800	800	
B1				binding result [5]: binds; binding result [6]: binds
B2				binding result [7]: no binding; binding result [8]: no binding
